tested on: Escherichia coli TOP10; experiment: shrunken log2 fold change of peptide-encoding DNA abundance (4.5 h post-induction vs induction); higher = less antimicrobial activity (less host growth inhibition); details: time post-induction: 4.5 h; library: site-saturation at positions 5, 18, 19, 20
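Note: peptides expressed intracellularly from a pBAD plasmid library in pooled LB shake-flask culture, induced with 0.3% L-arabinose, DNA abundance read by NGS, three biological replicates, DESeq2 with apeglm shrinkage.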

Sequence	shrunken log2 fold change
RRIRSRPPRLPRPRPRPNILPRP	-0.61
RRIRKRPPRLPRPRPRPNVDPRP	0.17
RRIRHRPPRLPRPRPRPNLFPRP	-0.0861
RRIRPRPPRLPRPRPRPNLEPRP	-0.0337
RRIRSRPPRLPRPRPRPHNSPRP	-0.357
RRIRHRPPRLPRPRPRPLQCPRP	-0.0439
RRIRVRPPRLPRPRPRPCYIPRP	-0.281
RRIRKRPPRLPRPRPRPLHRPRP	0.36
RRIRFRPPRLPRPRPRPHRTPRP	-0.18
RRIRQRPPRLPRPRPRPQTMPRP	0.0333
RRIRARPPRLPRPRPRPRYPPRP	0.0172
RRIRTRPPRLPRPRPRPHCHPRP	-0.0122
RRIRLRPPRLPRPRPRPPSMPRP	-0.127
RRIRIRPPRLPRPRPRPASSPRP	0.093
RRIRFRPPRLPRPRPRPPVRPRP	0.443
RRIRWRPPRLPRPRPRPFFEPRP	-0.0187
RRIRYRPPRLPRPRPRPATLPRP	-0.307
RRIRERPPRLPRPRPRPIMDPRP	-0.247
RRIRSRPPRLPRPRPRPMEYPRP	-0.00133
RRIRLRPPRLPRPRPRPYYMPRP	-0.671
RRIRMRPPRLPRPRPRPGQNPRP	0.0316
RRIRCRPPRLPRPRPRPYSGPRP	-0.566
RRIRWRPPRLPRPRPRPVMQPRP	0.294
RRIRWRPPRLPRPRPRPRGCPRP	0.961
RRIRTRPPRLPRPRPRPKGAPRP	0.351

Sequence	shrunken log2 fold change
RRIRMRPPRLPRPRPRPVCDPRP	0.367
RRIRSRPPRLPRPRPRPACPPRP	0.413
RRIRDRPPRLPRPRPRPKHGPRP	0.0517
RRIRQRPPRLPRPRPRPNSCPRP	0.0314
RRIRDRPPRLPRPRPRPFGLPRP	-0.259
RRIRNRPPRLPRPRPRPCHLPRP	-0.146
RRIRHRPPRLPRPRPRPTAEPRP	0.056
RRIRYRPPRLPRPRPRPCNWPRP	-0.0748
RRIRHRPPRLPRPRPRPIMLPRP	-0.389
RRIRTRPPRLPRPRPRPAQCPRP	0.18
RRIRTRPPRLPRPRPRPGKGPRP	0.0141
RRIRERPPRLPRPRPRPFKDPRP	-0.0062
RRIRARPPRLPRPRPRPEDQPRP	0.0203
RRIRTRPPRLPRPRPRPAQMPRP	0.0652
RRIRLRPPRLPRPRPRPDWLPRP	0.318
RRIRERPPRLPRPRPRPVMVPRP	0.204
RRIRRRPPRLPRPRPRPKFCPRP	0.175
RRIRPRPPRLPRPRPRPRRIPRP	0.252
RRIRKRPPRLPRPRPRPAINPRP	0.126
RRIRLRPPRLPRPRPRPHQQPRP	0.0445
RRIRPRPPRLPRPRPRPMCAPRP	0.159
RRIRERPPRLPRPRPRPCHVPRP	-0.0775
RRIRERPPRLPRPRPRPLLEPRP	0.105
RRIRPRPPRLPRPRPRPNTPPRP	-0.153
RRIRDRPPRLPRPRPRPFCIPRP	-0.0778

Sequence	shrunken log2 fold change
RRIRIRPPRLPRPRPRPKWGPRP	-0.00761
RRIRYRPPRLPRPRPRPVFNPRP	-1.32
RRIRVRPPRLPRPRPRPLVNPRP	-0.244
RRIRMRPPRLPRPRPRPHYPPRP	-0.303
RRIRTRPPRLPRPRPRPDKSPRP	-0.0816
RRIRHRPPRLPRPRPRPEPTPRP	0.179
RRIRHRPPRLPRPRPRPAANPRP	-0.0763
RRIRIRPPRLPRPRPRPRFMPRP	-0.143
RRIRSRPPRLPRPRPRPKGVPRP	0.0137
RRIRTRPPRLPRPRPRPWWTPRP	-0.045
RRIRGRPPRLPRPRPRPMKWPRP	3.42
RRIRNRPPRLPRPRPRPESFPRP	-0.0337
RRIRARPPRLPRPRPRPFRLPRP	0.114
RRIRRRPPRLPRPRPRPWWQPRP	0.0834
RRIRVRPPRLPRPRPRPTCCPRP	0.095
RRIRFRPPRLPRPRPRPMYCPRP	-0.541
RRIRRRPPRLPRPRPRPIKRPRP	0.156
RRIRMRPPRLPRPRPRPIDWPRP	0.483
RRIRNRPPRLPRPRPRPREKPRP	0.377
RRIRCRPPRLPRPRPRPAISPRP	0.0324
RRIRWRPPRLPRPRPRPIVNPRP	-0.0307
RRIRLRPPRLPRPRPRPIVYPRP	-0.43
RRIRKRPPRLPRPRPRPPVAPRP	0.974
RRIRDRPPRLPRPRPRPAYSPRP	0.0295
RRIRPRPPRLPRPRPRPSRIPRP	-0.0841
